Target: Hydroxynitrile lyase from Parafontaria laminata millipedes, purified from the millipedes (PlamHNL-N) (Parafontaria laminata)
Test: SEC

stoichiometry N: 2
Substance: Hydroxynitrile lyase from Parafontaria laminata millipedes, purified from the millipedes (PlamHNL-N) (enzyme)
